From patent US7318921B2, “Therapeutic compositions that alter the immune response” (AltaRex Medical Corp., priority 1996, dated 2008)

What was measured:
[1] = tested on: CA125 specific mouse T-cells; experiment: Proliferation of CA125 specific T-cells with stimulated peritoneal macrophages ([3H]-thymidine uptake); type: cell-based; conditions: macrophages stimulated with agent, presented to CA125 specific mouse T-cells; 1 μug/ml of the antibody and 100 Units/ml CA125; mean of three experiments
Excerpt: Enhanced antigen-presentation of antigen-antibody complexes was attributed to facilitated antigen uptake via the Fcγ-receptor (macrophages, dendritic cells) or membrane-bound Ig (B cells) on professional antigen-presenting cells (APC). […] Accordingly, various professional APC can be involved in the preferential presentation of the CA125-MAb-B43.13 complex. We tested B cells with two different specificities as well as macrophages as APC: CA125-specific B cells (from mice immunized with CA125) and anti-MAb-B43.13-specific B cells (from mice immunized with MAb-B43.13). Normal B cells served as control. […] Enhanced presentation of immune complexes by macrophages and dendritic cells is mediated by preferential uptake via the FcγR. FIG. 4 confirms that CA125 is presented more efficiently by macrophages, if complexed with an antigen specific antibody.
Better cellular immune response was observed when the UV exposed antibody was presented in association with the antigen to T-cells. Thus, macrophages isolated from mouse peritoneal cavities were stimulated with native B43.13 or UV exposed B43.13 in association with CA125 and presented to CA125 specific mouse T-cells isolated from mice injected with CA125. Control experiments included stimulation of the macrophages without the antigen. […]

CA125 [2] = target: T1, CA125 (Homo sapiens, UniProt Q8WXI7); experiment: Inhibition of binding of patients' anti-CA125 antibodies to CA125 (solid phase); classification Ab3/Ab1c; conditions: inhibitor at 10500 U/ml
Method: Anti-CA 125 positive samples were tested for inhibition of their binding to CA 125 (solid phase) by CA 125, MAb-B43.13 scFv, MAb-B27.1 F(ab′), or MAb M11 F(ab′). Single chain MAb-B43.13, F(ab′) MAb-B27.1, and F(ab′) M11 were used in the inhibition studies to avoid non-specific inhibition of the Fc portion of the antibody and cross-reactivity due to HAMA. To be considered to be significant, inhibition had to be at least 15%.
Thus, if the patients serum contained anti-CA125 antibodies that were inhibitable by MAb-B43.13 only, it was classified as containing Ab3; those inhibitable by MAb-B27.1 were classified as Ab1c. In other words, injecting a binding agent such as an antibody against a single epitope on a multi-epitopic antigen leads to generation of a humoral and cellular response against a different epitope on the antigen.
Method: 86 ovarian cancer patients with active disease were tested for the presence of antibodies against CA125. None of the patients had antibodies against CA125 before injection of MAb-B43.13. The patients were injected with 2 mg of MAb-B43.13 at varying time intervals (e.g., see Table 5 for some of the patients). Sera from these patients were analyzed for the presence of human anti-CA125 antibodies by their ability to bind to the CA125 [R. Madiyalakan et al, Hybridoma, 14:199-203 1995)]. […]

CA125 [3] = target: T1, CA125; experiment: in vitro studies, method not stated
FcγR = conditions: complexed with anti-tetanus toxoid IgG; measured by TH cell activation; cited from earlier work

Substance: CA125: soluble multi-epitopic tumor associated antigen of epithelial ovarian cancers
- STIMULATION INDEX [1]: 2.76
- Inhibition, No. of Positives/Total (CA125 [2]; anti-CA125 positive samples of patients injected with MAb-B43.13, positive = inhibition at least 15%): 26/28
- Inhibition, positives (%) (CA125 [2]; anti-CA125 positive samples): (92.8) %

Substance: MAb-B43.13 (antibody)
- binding capacity (units of CA 125 per 1 ng of MAb-B43.13) (CA125 [3]): 10

Substance: tetanus toxoid
- increase in processing and presentation of the antigen (FcγR): 10-1000 -fold
